# Laboratory results as given in US20100278806A1, “Composition Containing Arazyme for the Prevention and Treatment of Arthritis” (Insect Biotech Co., Ltd., priority 2008, published 2010).
# B1: arazyme: enzyme purified from Aranicola proteolyticus HY-3 (KCTC 0268BP) culture; monomer of approximately 51.5 kDa; amino acid sequence SEQ ID No: 1 (protein, listed as Aranicola proteolyticus)
# chain: MQSTKKAIEITESSLAAASSAYNAVDDLLHYHERGNGIQVNGKDSFSTEQAGLFITRENQTWNGYKVFGQPVKLTFSFPDYKFSSTNVAGDTGLSKFSAEQQQQAKLSLQSWSDVANITFTEVGAGQKANITFGNYSQDRPGHYDYDTQAYAFLPNTIYQGQNLGGQTWYNVNQSNVKHPASEDYGRQTFTHEIGHALGLSHPGDYNAGEGNPTYRDASYAEDTREFSLMSYWSETNTGGDNGGHYAAAPLLDDISAIQHLYGANQTTRTGDTVYGFNSNTGRDFLSTTSNPQKVIFAAWDAGGNDTFDFSGYTANQRINLNEKSFSDVGGLKGNVSIAAGVTIENAIGGSGNDVIVGNAANNVLKGGAGNDVLFGGGGADELWGGAGKDTFVFSAVSDSAPGASDWIKDFQKGIDKIDLSFFNQGAQGGDQIHFVDHFSGAAGEALLSYNASNNVSDLALNIGGHQAPDILVKIVGQVDVATDFIV
# modifications: Zn binding site (192)..(192); Zn binding site (196)..(196); Zn binding site (323)..(323)
# Key:
# [1] = system: TNF-α; assay: Measurement of TNF-α in serum by ELISA, osteoarthritis-induced rabbits; type: in vivo, NewZealand White Rabbits; settings: autopsy at 12 weeks of administration in drinking water, arazyme 250 mg/kg, celecoxib 10 mg/kg/day, no statistical significance
# Excerpt: (§1) It is known that not only repetitive joint damage but also a lesion similar to that of human degenerative osteoarthritis is induced in a rabbit model with knee meniscus removed. A method for tearing the cranial cruciate ligament is used as a method for inducing osteoarthritis in rabbits (Hulth A. et al., Acta Orthp Scand. 41:522-530, 1970). In the present experiment, the cranial cruciate ligament of a rabbit was torn to induce the instability of joints and simultaneously medial meniscus was removed to induce osteoarthritis.
# (§2) The cranial cruciate ligaments of right knees of all the experimental animals were torn to induce the instability of joints and medial meniscuses were simultaneously removed to induce osteoarthritis. […]
# (§3) In order to induce osteoarthritis effectively, all the animals in the experimental group were subjected to a forced exercise task using a treadmill for 5 min every day from the day 4 after the induction surgery of osteoarthritis, and arthrography was performed on both knee joints at 4 weeks, 8 weeks, and 12 weeks after administration of the test material to measure the changes of joint surface. An autopsy was performed at 12 weeks after administration of the test material to conduct serologic tests of blood samples through collection of blood and control effects of the test material on osteoarthritis were assessed through a histopathological test. […]
# [2] = system: joint cartilage of osteoarthritis-induced right knee; assay: Visual observation of the changes of joint cartilage, osteoarthritis-induced rabbits; type: in vivo, NewZealand White Rabbits; settings: autopsy at 12 weeks
# Excerpt: as §1, §2, §3
# [3] = system: joint cartilage of osteoarthritis-induced right knee; assay: Histopathological observation of joint cartilage (H&E, toluidine blue, azan), osteoarthritis-induced rabbits; type: in vivo, NewZealand White Rabbits; settings: autopsy at 12 weeks, optical microscope
# Excerpt: as §1
# The cranial cruciate ligaments of right knees of all the experimental animals were torn to induce the instability of joints and medial meniscuses were simultaneously removed to induce osteoarthritis. Sharm-operations were performed on the left knees to be used as a control against administration of a test material. Tear of cranial cruciate ligament and medial meniscus removal were performed as follows. The animals were fasted for 6 to 12 hours prior to the operation and only drinking water was supplied. Subsequently, an anesthetic of Xylazine (Rompun, Bayer Korea Ltd.) at 1.25 ml/6 mg/kg and Zoletil50 (Virbac) at 0.2 ml/10 mg/kg was intramuscularly injected to anesthetize the animals. […]
# as §3
# [4] = system: Wistar-derived SPF female rats; assay: Acute toxicity experiment of arazyme, single oral administration; type: in vivo
# Description: 4 groups, each consisting of 4 Wistar-derived specific pathogen free (SPF) female rats (Orient Co., Ltd., Seoul, Korea), were bred in an animal laboratory under conditions of temperature 22° C.±3° C., humidity 55±10%, and illumination 12 L/12 D. After purchase, the rats were quarantined and adapted in the animal laboratory for 1 week. During the whole test period, 5 or less rats were accommodated in each polycarbonate cage (240 W×390 L×175 H mm). For individual identification, both skin mark using an oil marker and group distinction cards at each breeding box were used. Solid fodder for experimental animals (PMI Nutrition International, USA) was sterilized, and tap water was freely given by a water bottle.
# Arazyme in the Examples was dissolved in sterilized water for injection at 0, 1250, 2500, and 5000 mg/kg, prepared at a dose of 10 ml/kg, and orally administered to the rats using zonde one. After 1 week adaptation, the rats were divided into 4 groups and arazyme was administered to 10 week-old rats at each concentration to observe general symptoms. Subsequently, an autopsy was performed after 24 hours in order to evaluate the toxicity of arazyme on actual organs.
# After oral administration of arazyme into female rats, the behaviors, appearances, and functions of the animals were investigated in order to observe general symptoms exactly according to the administration of a test material and evaluate the toxicity.
# [5] = after single oral administration up to 5000 mg/kg
molecule,measurement,setting,value
B1,expression of TNF-α in serum compared with negative control group,[1],at a lower level than the negative control group
same,"cartilage damage of femoral joint surface, visual observation","[2]; arazyme 250 mg/kg, celecoxib 10 mg/kg/day",less cartilage damage was generally shown than in the negative control group
same,"lesions of tibia joint surface, visual observation",[2]; positive control group compared with test material group,generally similar lesions were observed in the groups
same,"damage of joint cartilage, hematoxylin-eosin staining",[3],most of the vertical fissures were formed into sites corresponding to the mid zones from the surface
same,"loss of collagen, azan staining",[3],weak loss of collagen
same,"loss of proteoglycan, toluidine blue staining",[3],proteoglycan was lost into the mid zone
same,"microscopic findings in liver, heart, lung and pancreas",[4]; 24 hours after oral administration up to 5000 mg/kg,No pathological symptoms were observed
same,"general symptoms (activity, walking, temperament, convulsion)",[4]; [5],no abnormal symptoms
same,"outward appearance and functions (respiration, salivation, feces, vomiting)",[4]; [5],No abnormal changes were observed
same,estimated LD50,"[4]; single oral administration 0, 1250, 2500, 5000 mg/kg",at least 5000 mg/kg
